Results: patent publication US20220195043A1
pKd: −log10 of the molar value.

What was measured:
[1] = target: human CD3ε-his (Cat #:10977-H08s, SinoBiological, China) (human) (UniProt P07766); assay: SPR (BIAcore 8K); human CD3ε-his coupled to CM5 chip, antibody injected
[2] = target: monkey CD20 (HEK293A/monkey CD20 cells) (monkey); assay: FACS on HEK293A/monkey CD20 (CynoCD20) cells, PE anti-human IgG secondary antibody, MFI
[3] = target: human CD3ε-his (Cat #:10977-H08s, SinoBiological, China) (human) (UniProt P07766); assay: ELISA: plate coated with human CD3ε-his (hCD3ε-his), antibody titrated, HRP goat anti-human IgG, OD450
[4] = target: monkey CD3 complex on cell surfaces (monkey PBMCs) (monkey); assay: FACS on monkey PBMCs (Cyno-PBMC), given by the filing as binding to monkey CD3; PE goat anti-human IgG, MFI

Sequence of human CD3ε-his (Cat #:10977-H08s, SinoBiological, China) (human) (P07766 23-126 limits assumed): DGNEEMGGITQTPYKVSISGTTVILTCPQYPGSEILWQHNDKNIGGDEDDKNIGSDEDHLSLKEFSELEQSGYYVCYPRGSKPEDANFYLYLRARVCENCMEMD
Sequence of monkey CD20 (HEK293A/monkey CD20 cells) (monkey) (P11836 other isoform, or with tags, fused parts or gaps): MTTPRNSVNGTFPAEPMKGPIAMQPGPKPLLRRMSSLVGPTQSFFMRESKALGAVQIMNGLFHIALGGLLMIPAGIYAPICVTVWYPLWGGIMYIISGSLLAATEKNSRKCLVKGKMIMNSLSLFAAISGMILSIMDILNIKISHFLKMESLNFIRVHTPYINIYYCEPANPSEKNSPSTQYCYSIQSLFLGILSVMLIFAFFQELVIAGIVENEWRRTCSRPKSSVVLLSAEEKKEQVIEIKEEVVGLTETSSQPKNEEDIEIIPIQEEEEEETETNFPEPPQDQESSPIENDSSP

pKd [1]: 8.25
EC50 (read off the curve) [2]: 0.06 µg/mL
EC50 (read off the curve) [3]: 0.1 µg/mL
EC50 (read off the curve) [4]: 0.6 µg/mL
Substance: CD20-TCB (reference bispecific antibody against CD3 and CD20)
